{"source": "patent US20170121416A1", "about": "(AbbVie / Abbott, published 2017)", "binders": {"B1": {"name": "hSC10.17 (antibody, V domains shown)", "VH": "EVQLVESGGGLVQPGGSLRLSCAASGFTFSSYGMHWVRQAPGKGLEWVAYITTRSSTIYYADSVKGRFTISRDNAKNSLYLQMNSLRAEDTAVYYCTREPLTGYYAMDYWGQGTSVTVSS", "VL": "DVVMTQSPLSLPVTLGQPASISCRSSQSIVHSDGNTYLEWYQQRPGQSPRRLIYKVSNRFSGVPDRFSGSGSGTDFTLKISRVEAEDVGVYYCFQGSHAPWTFGGGTKVEIK", "notes": "humanized (CDR-grafted) SC10.17; also called humanized SC10.17 mAb; hSC10.17 IgG"}}, "key": {"[1]": {"biological_target": "T1, Nectin-4 protein (R&D Systems) (UniProt Q96NY8 32-349)", "T1 construct": "bought; coated on the plate of the bridging ELISA", "T1 sequence (looked up)": "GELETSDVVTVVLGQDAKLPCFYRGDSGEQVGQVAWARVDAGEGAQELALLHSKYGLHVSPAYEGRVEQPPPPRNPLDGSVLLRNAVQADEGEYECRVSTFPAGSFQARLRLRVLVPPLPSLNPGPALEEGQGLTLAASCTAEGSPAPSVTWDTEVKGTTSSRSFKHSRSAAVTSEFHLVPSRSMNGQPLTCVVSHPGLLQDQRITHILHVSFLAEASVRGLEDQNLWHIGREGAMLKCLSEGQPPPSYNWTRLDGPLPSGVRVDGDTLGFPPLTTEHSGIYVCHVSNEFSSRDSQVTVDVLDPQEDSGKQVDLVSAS", "assay": "bridging ELISA: Nectin-4 coated, detection with biotinylated CD324 W2A and streptavidin-HRP"}, "[2]": {"biological_target": "T2, human CD324-His recombinant protein (Sino Biological, Inc.) (human, UniProt P12830 155-709)", "T2 construct": "bought soluble protein; The antigen of the Biacore experiment is only called human CD324 antigen; also called hCD324-His; human CD324 antigen; not shown: His tag", "T2 sequence": "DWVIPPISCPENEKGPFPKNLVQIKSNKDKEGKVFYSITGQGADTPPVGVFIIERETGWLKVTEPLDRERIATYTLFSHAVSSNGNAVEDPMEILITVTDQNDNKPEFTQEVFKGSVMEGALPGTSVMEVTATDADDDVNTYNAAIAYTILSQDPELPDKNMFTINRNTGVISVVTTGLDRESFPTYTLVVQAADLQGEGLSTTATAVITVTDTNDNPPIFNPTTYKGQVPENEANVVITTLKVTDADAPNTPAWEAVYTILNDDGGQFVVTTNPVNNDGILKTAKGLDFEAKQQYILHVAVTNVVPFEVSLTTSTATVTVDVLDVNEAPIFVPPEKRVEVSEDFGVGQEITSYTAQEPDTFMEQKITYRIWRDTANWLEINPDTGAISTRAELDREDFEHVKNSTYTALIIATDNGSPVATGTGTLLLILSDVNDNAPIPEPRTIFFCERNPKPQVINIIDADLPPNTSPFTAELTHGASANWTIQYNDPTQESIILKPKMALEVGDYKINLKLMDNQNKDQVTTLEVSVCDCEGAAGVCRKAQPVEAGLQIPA", "assay": "SPR (Biacore), similar experiments as for murine SC10.17; humanized antibody"}, "[3]": {"biological_target": "T3, Nectin-4 on cells (MCF-7, SKBR3) (UniProt Q96NY8 32-510, limits assumed)", "T3 sequence (looked up)": "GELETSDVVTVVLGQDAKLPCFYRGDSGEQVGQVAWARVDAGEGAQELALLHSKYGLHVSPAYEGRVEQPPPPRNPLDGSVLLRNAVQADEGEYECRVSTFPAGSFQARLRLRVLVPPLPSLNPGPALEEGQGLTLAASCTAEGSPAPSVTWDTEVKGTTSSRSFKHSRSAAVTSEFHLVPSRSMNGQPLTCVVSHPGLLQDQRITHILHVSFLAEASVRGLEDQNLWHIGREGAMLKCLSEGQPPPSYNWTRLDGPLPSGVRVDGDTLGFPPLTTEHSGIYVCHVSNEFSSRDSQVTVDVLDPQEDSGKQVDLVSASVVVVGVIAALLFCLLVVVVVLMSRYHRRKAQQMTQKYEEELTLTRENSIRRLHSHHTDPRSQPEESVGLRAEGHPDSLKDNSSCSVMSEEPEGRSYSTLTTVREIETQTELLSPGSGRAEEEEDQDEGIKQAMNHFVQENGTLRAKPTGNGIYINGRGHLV", "assay": "cell-based or functional assay"}, "[4]": {"biological_target": "T4, human CD324 on cells (MCF7, BR22, NTX tumor cells, 293-hCD324) (human, UniProt P12830 155-882)", "T4 sequence": "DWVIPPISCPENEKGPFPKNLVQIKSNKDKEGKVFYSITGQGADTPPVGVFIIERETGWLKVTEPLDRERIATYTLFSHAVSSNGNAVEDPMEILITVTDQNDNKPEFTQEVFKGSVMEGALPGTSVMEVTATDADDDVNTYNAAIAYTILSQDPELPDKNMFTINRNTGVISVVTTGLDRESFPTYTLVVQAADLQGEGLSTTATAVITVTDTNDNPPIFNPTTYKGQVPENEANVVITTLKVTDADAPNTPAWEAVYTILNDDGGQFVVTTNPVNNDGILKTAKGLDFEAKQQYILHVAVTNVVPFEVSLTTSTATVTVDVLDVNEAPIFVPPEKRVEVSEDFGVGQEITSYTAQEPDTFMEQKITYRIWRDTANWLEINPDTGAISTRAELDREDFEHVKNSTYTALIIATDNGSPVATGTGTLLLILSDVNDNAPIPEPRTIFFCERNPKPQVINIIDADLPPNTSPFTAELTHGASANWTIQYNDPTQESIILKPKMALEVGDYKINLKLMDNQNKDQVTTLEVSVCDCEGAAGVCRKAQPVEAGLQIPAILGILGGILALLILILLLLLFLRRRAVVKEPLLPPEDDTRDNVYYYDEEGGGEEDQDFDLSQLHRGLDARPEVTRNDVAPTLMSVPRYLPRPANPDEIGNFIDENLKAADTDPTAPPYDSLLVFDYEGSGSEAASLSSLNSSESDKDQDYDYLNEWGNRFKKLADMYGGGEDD", "assay": "cell-based or functional assay"}, "[5]": {"biological_target": "T4, human CD324 on cells (MCF7, BR22, NTX …)", "assay": "cell-based or functional assay", "remark": "listed apart in the source"}, "[6]": {"biological_target": "T4, human CD324 on cells (MCF7, BR22, NTX …)", "assay": "cell-based or functional assay", "remark": "listed apart in the source"}}}
{"binder": "B1", "values": [{"measurement": "binding result", "setting": "[1]", "result": "no binding"}, {"measurement": "Kd", "setting": "[2]", "result": 3800, "unit": "pM"}, {"measurement": "IC50 on SKBR3 (pM), in vitro killing with anti-human IgG Fab-saporin", "setting": "[3]", "result": "> 1000", "unit": "pM"}, {"measurement": "IC50 on 293-hCD324 (pM), in vitro killing with anti-human IgG Fab-saporin", "setting": "[4]", "result": 0.27, "unit": "pM"}, {"measurement": "IC50 on MCF-7 (pM), in vitro killing with anti-human IgG Fab-saporin", "setting": "[4]", "result": 3.1, "unit": "pM"}, {"measurement": "EC50 (MCF7, Fab-saporin killing)", "setting": "[5]", "result": 4.44, "unit": "pM"}, {"measurement": "EC50 of killing of MCF7 cells, anti-human Fab-saporin assay", "setting": "[6]", "result": 4.4, "unit": "pM"}]}
